Experimental data from article doi:10.1101/2025.01.22.634233 (bioRxiv, 2025).

Key:
cross-linking = target: the molecule itself; test: cross-linking
[1] = target: T1, biotinylated Avi-BARD1^554-777, wild type (human, UniProt Q99728 554-777, biotinylated by MBP-BirA); test: BLI
T1 sequence: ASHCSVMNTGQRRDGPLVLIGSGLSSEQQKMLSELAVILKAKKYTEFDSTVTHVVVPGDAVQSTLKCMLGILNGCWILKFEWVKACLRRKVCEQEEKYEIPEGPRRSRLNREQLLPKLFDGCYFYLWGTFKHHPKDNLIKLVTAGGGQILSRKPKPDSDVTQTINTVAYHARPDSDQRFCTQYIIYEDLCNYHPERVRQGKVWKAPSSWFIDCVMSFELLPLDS

B1: BARD1 BRCT (BARD1^554-777), wild type (domain or fragment)
chain: T1 sequence
binding result (cross-linking): binds

B2: pS5pS7 GST-(CTD)26 (domain or fragment)
chain: not shown
modifications: phosphoserine at S5 and S7 of the CTD heptads (pS5pS7)
Kd [1]: 193 nM
